Results published in patent US12018066 (TRIAD NATIONAL SECURITY, dated 2024).
Read-outs that look alike come from different tables or passages of the source.

What was measured:
[1] = target: T1, SARS-CoV-2 spike protein receptor binding domain (RBD2) (SARS-CoV-2, UniProt P0DTC2 319-537); assay: SPR sandwich binning, ligand H01
[2] = target: T1, SARS-CoV-2 spike protein receptor …; assay: SPR sandwich binning, ligand F07
[3] = target: SARS-CoV-2 spike protein on whole SARS-CoV-2 virus (SARS-CoV-2, UniProt P0DTC2 14-1273); assay: cell-based or functional assay
[4] = target: T1, SARS-CoV-2 spike protein receptor …; assay: SPR, immobilized antibody, RBD injected, 1:1 fit
[5] = target: T1, SARS-CoV-2 spike protein receptor …; assay: SPR sandwich binning, ligand E01
[6] = target: T1, SARS-CoV-2 spike protein receptor …; assay: SPR sandwich binning, ligand B04
[7] = target: T1, SARS-CoV-2 spike protein receptor …; assay: SPR sandwich binning, ligand CR3022
[8] = target: T1, SARS-CoV-2 spike protein receptor …; assay: SPR sandwich binning, ligand G07
[9] = target: T1, SARS-CoV-2 spike protein receptor …; assay: SPR
[10] = target: T1, SARS-CoV-2 spike protein receptor …
[11] = target: T1, SARS-CoV-2 spike protein receptor …; assay: SPR sandwich binning, ligand S01
[12] = target: T1, SARS-CoV-2 spike protein receptor …; assay: SPR sandwich binning, ligand H05
[13] = target: T1, SARS-CoV-2 spike protein receptor …; assay: SPR sandwich binning, ligand Anti-His
[14] = target: T1, SARS-CoV-2 spike protein receptor …; assay: SPR sandwich binning, ligand E08
[15] = target: T1, SARS-CoV-2 spike protein receptor …; remark: listed apart in the source
[16] = target: T2, human ACE2 receptor on HEK cells (Human ACE2 293 cell line) (human, UniProt Q9BYF1 18-805); assay: fluorescence microscopy, PE-labelled IgG on HEK-ACE2 cells without RBD2-sfGFP
T2 construct: whole, on cells; also called HEK-ACE2; ACE2 293 cells

[17] = target: T1, SARS-CoV-2 spike protein receptor …; assay: SPR sandwich binning, ligand NN54
[18] = target: T1, SARS-CoV-2 spike protein receptor …; assay: SPR, IgG
[19] = target: T3, SARS-CoV spike protein receptor binding domain (RBD1) (SARS-CoV, UniProt P59594 306-527); assay: flow cytometry (yeast scFv) / minibody ELISA, FIGS. 7A-C
[20] = target: T1, SARS-CoV-2 spike protein receptor …; remark: listed apart in the source
[21] = target: T1, SARS-CoV-2 spike protein receptor …; assay: flow cytometry, yeast-displayed scFv
[22] = target: T1, SARS-CoV-2 spike protein receptor …; assay: flow cytometry, yeast-displayed scFv, titration of biotinylated antigen
[23] = target: T1, SARS-CoV-2 spike protein receptor …; assay: SPR, minibodies
[24] = target: T3, SARS-CoV spike protein receptor binding …; assay: ELISA, minibodies (FIG. 6)

T2 sequence (Q9BYF1 18-805): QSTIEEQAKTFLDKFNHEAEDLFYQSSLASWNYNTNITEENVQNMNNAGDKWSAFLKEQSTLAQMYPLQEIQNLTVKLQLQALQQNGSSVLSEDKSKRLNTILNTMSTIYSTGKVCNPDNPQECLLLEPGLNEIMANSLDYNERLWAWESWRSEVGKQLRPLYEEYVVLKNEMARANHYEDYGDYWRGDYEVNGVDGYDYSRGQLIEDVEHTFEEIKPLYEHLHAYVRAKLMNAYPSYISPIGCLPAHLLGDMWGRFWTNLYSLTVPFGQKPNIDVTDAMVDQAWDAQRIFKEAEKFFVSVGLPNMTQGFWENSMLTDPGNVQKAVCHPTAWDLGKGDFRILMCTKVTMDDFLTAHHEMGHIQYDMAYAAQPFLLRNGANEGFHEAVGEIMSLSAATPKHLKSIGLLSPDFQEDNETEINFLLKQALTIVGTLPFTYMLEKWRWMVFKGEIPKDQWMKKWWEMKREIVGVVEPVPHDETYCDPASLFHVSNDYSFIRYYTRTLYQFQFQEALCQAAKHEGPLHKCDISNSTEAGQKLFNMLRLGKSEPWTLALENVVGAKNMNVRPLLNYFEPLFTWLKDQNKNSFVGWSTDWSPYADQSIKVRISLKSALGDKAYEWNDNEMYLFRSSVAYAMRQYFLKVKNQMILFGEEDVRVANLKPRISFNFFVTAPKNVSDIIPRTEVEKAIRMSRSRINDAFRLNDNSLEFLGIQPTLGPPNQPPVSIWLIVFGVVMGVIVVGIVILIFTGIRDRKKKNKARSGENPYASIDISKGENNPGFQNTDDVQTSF

| Binder | normalized analyte binding to RBD2 held by the immobilized ligand [1] | normalized analyte binding to RBD2 held by the immobilized ligand [2] | Kd [4] [nM] | normalized analyte binding to RBD2 held by the immobilized ligand [5] | normalized analyte binding to RBD2 held by the immobilized ligand [6] | normalized analyte binding to RBD2 held by the immobilized ligand [7] | normalized analyte binding to RBD2 held by the immobilized ligand [8] | Kd [9] [nM] | normalized analyte binding to RBD2 held by the immobilized ligand [12] | normalized analyte binding to RBD2 held by the immobilized ligand [13] | normalized analyte binding to RBD2 held by the immobilized ligand [14] | binding result [24] | also measured |
| --- | --- | --- | --- | --- | --- | --- | --- | --- | --- | --- | --- | --- | --- |
| H01 IgG1 (antibody, V domains shown, also called H1) VH: QVTLKESGPVLVKPTETLTLTCTVSGFSLSNARMGVSWIRQPPGKALEWLAHIFSNGEKSYSTSLKSRLTISKDTSKSQVVLTMTNMDPVDTATYYCARTLDYYDSSGYLVGGAFDIWGQGTMVTVSS VL: QPGLTQPPSVSLAPGQTARITCGGNNIGSKSVHWYQQKPGQAPVLVVYDDSDRPSGIPERFSGSNAGNTATLTISRVEAGDEADYYCQVWDSRSDQYVFGTRTKLTVL | -0.03 | 0.03 | 800 | 0.41 | 0.77 | -0.05 | 1.28 | 800 | -0.05 | 1.75 | -0.03 | – | NT50 (nM), half neutralization titer [3]: 69.6 nM; Nmax (%), neutralization maximum [3]: 87.7%; Kd [10]: 721 nM; normalized analyte binding to RBD2 held by the immobilized ligand [11]: -0.11 |
| E08 IgG1 (antibody, V domains shown) VH: QVQLVQSGAEVKKPGSSVKVSCKASGGTFSSYAISWVRQAPGQGLEWMGGIIPIFGTANYAQKFQGRVTITADESTSTAYMELSSLRSEDTAVYYCARASGRWLQFWHYYGMDVWGQGTTVTVSS VL: SYVLTQPPSVSVAPGKTARITCGGNNIGWKSVHWYQQKPGQAPVLVVYDDSDRPSGIPERFSGSNSGNTATLTISRVEAGDEADYYCQVWDSSSDLVVFGGGTKLTVL | 0.13 | 1.32 | 27 | 2.15 | 2.12 | -0.08 | 2.62 | 27 | -0.11 | 1.81 | -0.09 | – | NT50 (nM), half neutralization titer [3]: 52.9 nM; Nmax (%), neutralization maximum [3]: 70.4%; Kd [10]: 26 nM; normalized analyte binding to RBD2 held by the immobilized ligand [11]: 1.85 |
| G07 IgG1 (antibody, V domains shown) VH: QVQLVQSGAEVKKPGESLKISCKGSGYSFTSYWIGWVRQMPGKGLEWMGIIYPGDSDIRYSPSFQGQVTISADKSFSSAYLQWSSLKASDTAMYYCARLGATGAFDIWGQGTTVTVSS VL: QSVLIQPPSASGTPGQRVTISCSGSNSNFGSNSVSWYQQRPGTAPKLLIEGNNQRPSGVPERFSGSKSGTSASLAISGLQSEDEAEYSCASWDDSLNAFVFGPGTKLTVL | 0.94 | 0.08 | 320 | 1.57 | -0.03 | 1.56 | -0.05 | 320 | 1.03 | 0.92 | 1.86 | – | Kd [15]: 246 nM; binding result [16]: no binding (tested: 1 ug/mL); normalized analyte binding to RBD2 held by the immobilized ligand [17]: 1.73; Kd [18]: 2000 nM |
| E08 scFv (scFv) scFv: SYVLTQPPSVSVAPGKTARITCGGNNIGWKSVHWYQQKPGQAPVLVVYDDSDRPSGIPERFSGSNSGNTATLTISRVEAGDEADYYCQVWDSSSDLVVFGGGTKLTVLSGGSTITSYNVYYTKLSSSGTQVQLVQSGAEVKKPGSSVKVSCKASGGTFSSYAISWVRQAPGQGLEWMGGIIPIFGTANYAQKFQGRVTITADESTSTAYMELSSLRSEDTAVYYCARASGRWLQFWHYYGMDVWGQGTTVTVSS | – | – | – | – | – | – | – | – | – | – | – | – | binding result [19]: binds; Kd [20]: 13.9 nM; Kd [21]: 13.9 nM; Kd [22]: 13.9 nM |
| E08 minibody (scFv-Fc) (Fc fusion) SYVLTQPPSVSVAPGKTARITCGGNNIGWKSVHWYQQKPGQAPVLVVYDDSDRPSGIPERFSGSNSGNTATLTISRVEAGDEADYYCQVWDSSSDLVVFGGGTKLTVLSGGSTITSYNVYYTKLSSSGTQVQLVQSGAEVKKPGSSVKVSCKASGGTFSSYAISWVRQAPGQGLEWMGGIIPIFGTANYAQKFQGRVTITADESTSTAYMELSSLRSEDTAVYYCARASGRWLQFWHYYGMDVWGQGTTVTVSS | – | – | 3.6 | – | – | – | – | 3.6 | – | – | – | – | Kd [23]: 4 nM |
| R26 minibody (scFv-Fc) (Fc fusion) SYELTQPPSVSVAPGQTATITCGGKNIESKSVHWYQQKPGQAPVLVVSDDTDRASGIPERFSGSNSGGAATLTISRVEAGDEADYYCQVWDSPSDHYVFGPGTKLTVLSGGSTITSYNVYYTKLSSSGTQVQLVESGGGVVQPGRSLRLSCAASGFTFSSYAMHWVRQAPGKGLEWVAVISYDGSNKYYADSVKGRFTISRDKAKNTLYLQMNSLRGEDTAVYYCARELSYYDSSGYLRGDWYFDLWGRGTLVTVSS | – | – | 888 | – | – | – | – | – | – | – | – | – | Kd [23]: 900 nM |
| E01 minibody (scFv-Fc) (Fc fusion, also called E1) SYELTQPPSVSVAPGETARITCGGDNIGRRHVHWYQQKPGQAPVLVIYDDSDRPSGIPDRFSGSNSGNTATLTIGRVEAGDEADYYCQVWGSSNDPHVFGTGTKLTVLSGGSTITSNNVYYTKLSSSGTQVQLQQWGAGLLKPSETLSLKCAVYGGSFSGYYWGWIRQSTGKGLEWIGEINRSGSTNYNPSLKSRVTISVDTSKNQFSLKLSSVTAADTAVYYCARGGARYYYGSGSYRSTPRPYYFDYWGQGTLVTVSS | – | – | 21.5 | – | – | – | – | 21.5 | – | – | – | no binding | – |
| F07 minibody (scFv-Fc) (Fc fusion) SYVLTQPPSVSVAPGQTARITCGGNNIGSKSVHWYQQKPGQAPVLVVYDDSDRPSGIPERFSGSNSGNTATLIISRVEAGDEADYYCQVWDSSSVHYVFGTGTKLTVLSGGSTITSYNVYYTKLSSSGTQVQLVQSGAEVKKPGSSVRVSCKVSGYTFTGYYMHWVRQAPGQGLEWMGIINPSGGSTSYAQKFQGRVTMTRDTSTSTVYMELSSLRSEDTAVYYCARVRVGASDAFDIWGQGTMVTVSS | – | – | 61.5 | – | – | – | – | 61.5 | – | – | – | no binding | – |
| S01 minibody (scFv-Fc) (Fc fusion, also called 501) EIVMTQSPSSLSASVGDSVTITCQASQDISNYLNWYQQKPGKAPKLLIYDASNLETGVPSRFSGGGSGTDFTLTITSLQPEDIATYYCQQYDNFPPTFGPGTKVDIKSGGSTITSYNVYYTKLSSSDTQVQLVESGGGLVKPGGSLRLSCAASGFTVGSNYMSWVRQAPGKGLEWVSVIYSGGSTYYADSVKGRFTISRDNSKNTLYLQMNSLRAEDTAVYYCARGSSGAWYFDLWGRGTLVTVSS | – | – | – | – | – | – | – | 22700 | – | – | – | no binding | – |
